Results from patent US20210196796A1 (SYNTHEKINE, published 2021).
Substitutions are numbered along the chain they refer to. Numbers in names are those of the source.

T1: orthogonal hCD122 receptor (hoRb), hCD122 with H133D and Y134F (human, UniProt P14784 27-550)
T1 sequence: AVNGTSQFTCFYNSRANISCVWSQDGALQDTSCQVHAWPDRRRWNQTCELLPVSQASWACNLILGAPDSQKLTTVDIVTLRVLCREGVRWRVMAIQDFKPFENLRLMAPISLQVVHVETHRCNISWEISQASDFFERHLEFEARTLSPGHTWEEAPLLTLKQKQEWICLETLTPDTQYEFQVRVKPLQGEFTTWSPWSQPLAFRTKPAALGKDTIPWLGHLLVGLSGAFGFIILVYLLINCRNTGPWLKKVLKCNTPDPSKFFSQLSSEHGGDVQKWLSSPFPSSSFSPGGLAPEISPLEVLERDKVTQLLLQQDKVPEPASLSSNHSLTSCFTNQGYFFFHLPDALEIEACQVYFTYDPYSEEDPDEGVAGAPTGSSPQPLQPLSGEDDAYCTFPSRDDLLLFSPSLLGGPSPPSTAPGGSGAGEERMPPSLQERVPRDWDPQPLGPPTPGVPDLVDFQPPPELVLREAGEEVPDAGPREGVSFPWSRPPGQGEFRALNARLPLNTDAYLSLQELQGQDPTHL

B1: T3Q, SQVLKA (ligand)
chain: APQSSSTKKTQLQLSQLLVLLKAILNGINNYKNPKLTRMLTFKFYMPKKATELKHLQCLEEELKPLEEVLNLAQSKNFHLRPRDLISNINVIVLELKGSETTFMCEYADETATIVEFLNRWITFCQSIISTLT
B2: T3K, SQVLKA (ligand)
chain: B1 chain with Q3K
B3: T3N, SQVLKA (ligand)
chain: B1 chain with Q3N
B4: T3E, SQVLKA (ligand)
chain: B1 chain with Q3E
B5: T3D, SQVLKA (ligand)
chain: B1 chain with Q3D
B6: T3P, SQVLKA (ligand)
chain: B1 chain with Q3P
B7: T3R, SQVLKA (ligand)
chain: B1 chain with Q3R

The binders below were run against T1, orthogonal hCD122 receptor (hoRb), … (assay: cell-based or functional assay).
For Relative Proliferation Fold Change 3F8 1:10 in this document: reference of the scale not given here.
For Relative Proliferation Fold Change 3F8 1:2 in this document: reference of the scale not given here.
For Relative Proliferation Fold Change 3F8 1:50 in this document: reference of the scale not given here.
For Relative Proliferation Fold Change NKL 1:10 in this document: reference of the scale not given here.
For Relative Proliferation Fold Change NKL 1:2 in this document: reference of the scale not given here.
For Relative Proliferation Fold Change NKL 1:50 in this document: reference of the scale not given here.

| Binder | 3F8 Ortho Proliferation Signal 1:2 | 3F8 Ortho Proliferation Signal 1:10 | 3F8 Ortho Proliferation Signal 1:50 | Relative Proliferation Fold Change 3F8 1:2 | Relative Proliferation Fold Change 3F8 1:10 | Relative Proliferation Fold Change 3F8 1:50 |
| --- | --- | --- | --- | --- | --- | --- |
| B1 | 39200 cts/min | 32200 cts/min | 14200 cts/min | 68.3 fold | 28.2 fold | 17.2 fold |
| B2 | 28900 cts/min | 15100 cts/min | 7150 cts/min | 50.9 fold | 7.35 fold | 9.24 fold |
| B3 | 34200 cts/min | 27200 cts/min | 9790 cts/min | 2.07 fold | 2.99 fold | 4.1 fold |
| B4 | 36100 cts/min | 36200 cts/min | 18900 cts/min | 20.8 fold | 45.5 fold | 16 fold |
| B5 | 33400 cts/min | 35000 cts/min | 13400 cts/min | 35.1 fold | 18.6 fold | 19 fold |
| B6 | 36500 cts/min | 39700 cts/min | 19000 cts/min | 33.9 fold | 42.8 fold | 38.5 fold |
| B7 | 28900 cts/min | 16800 cts/min | 5980 cts/min | 8.43 fold | 13.3 fold | 5.3 fold |

Molecular target: T1, orthogonal hCD122 receptor (hoRb), …
Assay: cell-based or functional assay
Remark: another data set of the same source

| Binder | NKL Ortho Proliferation Signal 1:2 | NKL Ortho Proliferation Signal 1:10 | NKL Ortho Proliferation Signal 1:50 | Relative Proliferation Fold Change NKL 1:2 | Relative Proliferation Fold Change NKL 1:10 | Relative Proliferation Fold Change NKL 1:50 |
| --- | --- | --- | --- | --- | --- | --- |
| B1 | 65300 | 73700 | 34800 | 4.19 fold | 4.03 fold | 1.93 fold |
| B2 | 42900 | 35500 | 18400 | 3.47 fold | 2.47 fold | 1.38 fold |
| B3 | 62400 | 65700 | 31400 | 3.87 fold | 3.32 fold | 1.77 fold |
| B4 | 68600 | 75000 | 37400 | 3.97 fold | 3.86 fold | 2.06 fold |
| B5 | 49800 | 53900 | 27900 | 4.09 fold | 4.03 fold | 2.34 fold |
| B6 | 55400 | 56900 | 32700 | 6.03 fold | 4.91 fold | 2.9 fold |
| B7 | 58400 | 40700 | 19300 | 4.15 fold | 2.9 fold | 1.45 fold |
